# From patent publication US20070191277
# T1: rPAI-1Δ23 (recombinant truncated porcine plasminogen activator inhibitor-1 isoform; RCL deleted, heparin-binding domain deleted)
# T1 chain: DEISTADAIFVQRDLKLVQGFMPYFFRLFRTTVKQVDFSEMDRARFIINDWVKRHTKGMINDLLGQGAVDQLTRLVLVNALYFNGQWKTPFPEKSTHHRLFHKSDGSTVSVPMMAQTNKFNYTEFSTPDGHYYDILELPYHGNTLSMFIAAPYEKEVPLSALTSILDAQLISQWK
# T2: rPAI-123 (recombinant truncated porcine plasminogen activator inhibitor-1 isoform; RCL deleted, partial deletion of the heparin-binding domain)
# T2 chain: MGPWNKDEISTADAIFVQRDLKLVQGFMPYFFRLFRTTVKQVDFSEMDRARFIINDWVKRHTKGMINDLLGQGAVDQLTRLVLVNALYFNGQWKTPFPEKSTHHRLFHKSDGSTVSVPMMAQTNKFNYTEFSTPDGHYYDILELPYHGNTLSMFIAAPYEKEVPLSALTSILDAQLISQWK
# B1: plasminogen (protein)
# chain: EPLDDYVNTQGASLFSVTKKQLGAGSIEECAAKCEEDEEFTCRAFQYHSKEQQCVIMAENRKSSIIIRMRDVVLFEKKVYLSECKTGNGKNYRGTMSKTKNGITCQKWSSTSPHRPRFSPATHPSEGLEENYCRNPDNDPQGPWCYTTDPEKRYDYCDILECEEECMHCSGENYDGKISKTMSGLECQAWDSQSPHAHGYIPSKFPNKNLKKNYCRNPDRELRPWCFTTDPNKRWELCDIPRCTTPPPSSGPTYQCLKGTGENYRGNVAVTVSGHTCQHWSAQTPHTHNRTPENFPCKNLDENYCRNPDGKRAPWCHTTNSQVRWEYCKIPSCDSSPVSTEQLAPTAPPELTPVVQDCYHGDGQSYRGTSSTTTTGKKCQSWSSMTPHRHQKTPENYPNAGLTMNYCRNPDADKGPWCFTTDPSVRWEYCNLKKCSGTEASVVAPPPVVLLPDVETPSEEDCMFGNGKGYRGKRATTVTGTPCQDWAAQEPHRHSIFTPETNPRAGLEKNYCRNPDGDVGGPWCYTTNPRKLYDYCDVPQCAAPSFDCGKPQVEPKKCPGRVVGGCVAHPHSWPWQVSLRTRFGMHFCGGTLISPEWVLTAAHCLEKSPRPSSYKVILGAHQEVNLEPHVQEIEVSRLFLEPTRKDIALLKLSSPAVITDKVIPACLPSPNYVVADRTECFITGWGETQGTFGAGLLKEAQLPVIENKVCNRYEFLNGRVQSTELCAGHLAGGTDSCQGDSGGPLVCFEKDKYILQGVTSWGLGCARPNKPGVYVRVSRFVTWIEGVMRNN
# Legend:
# [1] = target: T1, rPAI-1Δ23 (recombinant truncated …)
# [2] = target: T2, rPAI-123 (recombinant truncated porcine …)
protein,measurement,setting,value
B1,plasminogen cleavage (immunoblot probed for mini-plasminogen),[1],"the rPAI-1Δ23 protein did not cleave plasminogen, even when increasing concentrations of the recombinant protein were added"
same,plasminogen cleavage (immunoblot probed for mini-plasminogen),[2],the rPAI-123 recombinant protein cleaves plasminogen
